Where a chain is given by its changes, count along the chain named.
T1: human Nectin-4 expressed by PC-3-Nectin-4 cells (human, UniProt Q96NY8 32-510)
T1 construct: Full-length human Nectin-4 gene (NCBI Gene ID 81607, 1533 bp) knocked into PC-3 cells; On intact cells in flow cytometry; in denatured cell lysate in Western blotting; also called Nectin-4-expressing cells; Nectin-4-positive cells
T1 sequence: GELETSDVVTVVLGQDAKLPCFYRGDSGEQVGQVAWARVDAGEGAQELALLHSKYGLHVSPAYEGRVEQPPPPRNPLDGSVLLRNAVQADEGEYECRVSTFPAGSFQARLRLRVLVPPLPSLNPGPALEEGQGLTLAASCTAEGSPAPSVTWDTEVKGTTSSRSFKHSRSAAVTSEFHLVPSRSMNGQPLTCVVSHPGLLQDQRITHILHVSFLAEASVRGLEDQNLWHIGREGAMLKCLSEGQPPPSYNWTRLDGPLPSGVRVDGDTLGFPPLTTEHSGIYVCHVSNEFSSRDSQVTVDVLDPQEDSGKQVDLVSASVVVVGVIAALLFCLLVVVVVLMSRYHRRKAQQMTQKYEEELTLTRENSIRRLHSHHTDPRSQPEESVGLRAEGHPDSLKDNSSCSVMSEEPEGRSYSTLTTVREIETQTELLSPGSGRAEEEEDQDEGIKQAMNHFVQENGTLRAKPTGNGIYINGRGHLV

T2: Nectin-4 in human tissue sections (human, UniProt Q96NY8 32-510)
T2 construct: Endogenous Nectin-4 in formalin-fixed, paraffin-embedded human tissue sections (cell membrane and/or cytoplasm), as stained by immunohistochemistry; also called target protein Nectin-4; Nectin-4 in normal human tissues and tumor tissues
T2 sequence: T1 sequence

B1: Antibody MM11 (antibody, mouse IgG1, kappa, V domains shown)
VH: DVQLQESGPGLVKPSQSLSLTCSVTGYSITSNFYWNWIRQFPGNRLEWMGYISYDGSNNYNPSLKNRISISRDTSKNQFFLKLNSVTTEDTATYYCVRADYWGQGTLVTVSA
VL: DTVMTQTPLSLPVSLGDQASISCRSSQSLESSDGHAYLNWYLQKPGQSPQLLIYRVSNRFSGVLHRFSGSGSGTDFTLKISRVEAEDLGVYFCLQFTHVPFTFGSGTKLEIKR
notes: Mouse monoclonal antibody from a hybridoma; heavy chain constant region is mouse IgG1; also called Nectin-4 mouse monoclonal antibody MM11; mouse antibody MM11
B2: Antibody R012 (antibody, V domains shown)
VH: SKSVEESGGRLVTPGTPLTLTCTVSGFSLSTYAMSWVRQAPGKGLEYIGIISGRGTTYYASWLKGRFTISKTSTTVDLKITSPTTEDTATYFCARDAGISDVYTGYFNLWGQGTLVTVSS
VL: QPVLAQLPSASAALGASAKLTCTLSSAHRTYTIAWYQQQQGEAPRYLMMLKSDGSYTKGTGVPDRFSGSSSGADRYLIISSVQAADEADYYCGADDSGGYVFGGGTQLTVTG
notes: Rabbit monoclonal antibody from a phage library; heavy chain constant region is rabbit IgG; also called Nectin-4 rabbit monoclonal antibody R012; rabbit antibody R012
B3: Antibody R036 (antibody, V domains shown)
VH: SQSVEESGGRLVTPGTPLTLTCTVSGFSLSSYAMSWVRQAPGKGLEYIGIIGGRGTTYYAIWAKGRFTISKTSTTVDLKITSPTTEDTATYFCARDAGTTYVGTTYVATGYFNLWGQGTLVTVSS
VL: B2 VL with A5T, L7P, R29K, M49I, K58R, A85D
notes: Rabbit monoclonal antibody from a phage library; heavy chain constant region is rabbit IgG; also called Nectin-4 rabbit monoclonal antibody R036; rabbit antibody R036

Tests used:
[1] = biological target: recombinant human Nectin-4 protein (human) (UniProt Q96NY8); experiment: ELISA, antigen coated at 5 ug/ml, antibody 10 ng/ml
[2] = biological target: recombinant human Nectin-4 protein (human) (UniProt Q96NY8); experiment: ELISA, antigen coated at 5 ug/ml, antibody 100 ng/ml
[3] = biological target: recombinant human Nectin-4 protein (human) (UniProt Q96NY8); experiment: ELISA, antigen coated at 5 ug/ml, antibody 1000 ng/ml
[4] = biological target: recombinant human Nectin-4 protein (human) (UniProt Q96NY8); experiment: ELISA, antigen coated at 5 ug/ml, antibody 10000 ng/ml
[5] = biological target: T1, human Nectin-4 expressed by …; experiment: flow cytometry on PC-3-Nectin-4 cells, antibody 5 ug/ml
[6] = biological target: recombinant human Nectin-4 protein (human) (UniProt Q96NY8); experiment: ELISA, antigen coated at 5 ug/ml, antibody 0 ng/ml (blank control)
[7] = biological target: T2, Nectin-4 in human tissue sections; experiment: IHC, normal human salivary gland, 3 samples, antibody 1 ug/ml
[8] = biological target: T2, Nectin-4 in human tissue sections; experiment: IHC, normal human pancreas, antibody 1 ug/ml
[9] = biological target: T2, Nectin-4 in human tissue sections; experiment: IHC, normal human skin, antibody 1 ug/ml

Binder | OD detection value (OD450 nm-650 nm) [1] | OD detection value (OD450 nm-650 nm) [2] | OD detection value (OD450 nm-650 nm) [3] | OD detection value (OD450 nm-650 nm) [4] | binding result [5] | OD detection value (OD450 nm-650 nm) [6] | binding result [7] | binding result [8] | binding result [9]
B1 | 0.58 | 1.64 | 2.05 | 1.97 | binds | 0.008 | binds | – | –
B2 | 0.748 | 1.44 | 1.56 | 1.51 | binds | 0.008 | – | binds | –
B3 | 0.73 | 1.48 | 1.64 | 1.63 | binds | 0.007 | – | – | binds
